Measurements published in patent US20190300590A1 (PROTAGONIST THERAPEUTICS, published 2019).
Bridges are numbered along the chain shown (N, C = ends). [ ]: non-standard residue; d: D form. 2Nal = N[C@@H](Cc1ccc2ccccc2c1)C(=O)O; AEF = NCCOc1ccc(C[C@H](N)C(=O)O)cc1; Cit = NC(=O)NCCC[C@H](N)C(=O)O; αMeL = CC(C)C[C@](C)(N)C(=O)O; αMeK = C[C@](N)(CCCCN)C(=O)O; αMeV = CC(C)[C@](C)(N)C(=O)O; Thp = NC1(C(=O)O)CCOCC1; Abu = CC[C@H](N)C(=O)O; Aib = CC(C)(N)C(=O)O

T1: IL23R_huFC (human, UniProt Q5VWK5 24-353)
T1 sequence (looked up): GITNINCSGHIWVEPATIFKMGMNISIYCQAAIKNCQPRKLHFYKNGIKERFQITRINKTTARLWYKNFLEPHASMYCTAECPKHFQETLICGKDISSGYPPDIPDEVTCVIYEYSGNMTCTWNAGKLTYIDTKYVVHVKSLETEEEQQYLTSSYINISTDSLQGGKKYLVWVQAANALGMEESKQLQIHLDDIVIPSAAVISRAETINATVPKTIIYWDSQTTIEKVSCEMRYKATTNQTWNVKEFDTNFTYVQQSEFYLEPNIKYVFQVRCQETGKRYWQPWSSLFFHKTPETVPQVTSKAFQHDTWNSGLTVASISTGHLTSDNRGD

T2: IL-23R on DB cells (human, UniProt Q5VWK5 24-629)
T2 sequence (looked up): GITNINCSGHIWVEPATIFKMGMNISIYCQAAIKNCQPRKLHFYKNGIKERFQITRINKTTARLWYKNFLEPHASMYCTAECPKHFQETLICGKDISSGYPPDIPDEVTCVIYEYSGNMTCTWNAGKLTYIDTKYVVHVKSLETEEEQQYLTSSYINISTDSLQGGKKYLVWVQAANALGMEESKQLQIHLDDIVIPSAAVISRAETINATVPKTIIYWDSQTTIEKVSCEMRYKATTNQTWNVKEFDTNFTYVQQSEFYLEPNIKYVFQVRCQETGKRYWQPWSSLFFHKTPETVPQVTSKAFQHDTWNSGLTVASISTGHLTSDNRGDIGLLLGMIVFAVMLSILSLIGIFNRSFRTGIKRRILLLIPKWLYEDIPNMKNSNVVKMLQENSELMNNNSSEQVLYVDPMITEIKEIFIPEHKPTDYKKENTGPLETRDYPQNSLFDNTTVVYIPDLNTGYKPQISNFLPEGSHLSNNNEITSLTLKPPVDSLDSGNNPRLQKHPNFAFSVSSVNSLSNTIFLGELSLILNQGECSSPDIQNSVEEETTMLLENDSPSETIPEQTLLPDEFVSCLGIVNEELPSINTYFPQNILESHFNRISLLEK

T3: IL-23R on human cells (IL-23R-expressing DB cells; human NK cells) (human, UniProt Q5VWK5 24-629)
T3 sequence (looked up): T2 sequence (looked up)

B1: Ac-Cyclo-[[Abu]-QTWQC]-[Phe[4-(2-aminoethoxy)]]-[2-Nal]-[4-amino-4-carboxy-tetrahydropyran]-ENN-NH2 (peptide)
peptide: Ac-[Abu]QTWQC[AEF][2Nal][Thp]ENN-NH2
modifications: thioether 1-6
B2: Ac-[(D)Phe]-Cyclo-[[Abu]-QTWQC]-[Phe[4-(2-aminoethoxy)]]-[2-Nal]-[α-MeLys]-ENN-NH2 (peptide)
peptide: Ac-[dF][Abu]QTWQC[AEF][2Nal][αMeK]ENN-NH2
modifications: thioether 2-7
B3: Ac-Cyclo-[[Abu]-QTWQC]-[Phe[4-(2-aminoethoxy)]]-[2-Nal]-[α-MeLeu)-[Cit]-NN-NH2 (peptide)
peptide: Ac-[Abu]QTWQC[AEF][2Nal][αMeL][Cit]NN-NH2
modifications: thioether 1-6
B4: Ac-Cyclo-[[Abu]-QTWQC]-[Phe[4-(2-aminoethoxy)]]-[2-Nal]-[α-MeLys]-ENQ-NH2 (peptide)
peptide: Ac-[Abu]QTWQC[AEF][2Nal][αMeK]ENQ-NH2
modifications: thioether 1-6
B5: Ac-Cyclo-[[Abu]-QTWQC]-[Phe[4-(2-aminoethoxy)]]-[2-Nal]-α-MeVal]-[Lys(Ac)]-NG-NH2 (peptide)
peptide: Ac-[Abu]QTWQC[AEF][2Nal][αMeV]K(Ac)NG-NH2
modifications: thioether 1-6
B6: Ac-Cyclo-[[Abu]-QTWQC]-[Phe[4-(2-aminoethoxy)]]-[2-Nal]-[α-MeLys]-ENN-NH2 (peptide)
peptide: Ac-[Abu]QTWQC[AEF][2Nal][αMeK]ENN-NH2
modifications: thioether 1-6
B7: Ac-Cyclo-[[Abu]-QTWQC]-[Phe[4-(2-aminoethoxy)]]-[2-Nal]-[Aib]-[Lys(Ac)]-NA-NH2 (peptide)
peptide: Ac-[Abu]QTWQC[AEF][2Nal][Aib]K(Ac)NA-NH2
modifications: thioether 1-6
B8: Ac-Cyclo-[[Abu]-QTWQC]-[Phe[4-(2-aminoethoxy)]]-[2-Nal]-[Aib]-QNG-NH2 (peptide)
peptide: Ac-[Abu]QTWQC[AEF][2Nal][Aib]QNG-NH2
modifications: thioether 1-6
B9: [Ac-[Pen]-NTWQ-[Pen]-[Phe(4-CONH2)]-[2-Nal]-[4-amino-4-carboxy-tetrahydropyran]-KNN-NH2]2DIG (peptide)
peptide: XNTWQXFXXKNN
modifications: Ac; Pen-Pen disulfide; Phe(4-CONH2); 2-Nal; 4-amino-4-carboxy-tetrahydropyran; NH2; DIG linker joins the two subunits
B10: [Ac-[Pen]-NTWQ-[Pen]-[Phe(4-CONH2)]-[2-Nal]-[α-MeLeu]-KNN-NH2]2DIG (peptide)
peptide: XNTWQXFXLKNN
modifications: Ac; Pen-Pen disulfide; Phe(4-CONH2); 2-Nal; α-MeLeu; NH2; DIG linker joins the two subunits
B11: [Ac-[Pen]-NTWQ-[Pen]-[Phe(4-OMe)]-[2-Nal]-[Acvc]-KNN-NH2]2DIG (peptide)
peptide: XNTWQXFXXKNN
modifications: Ac; Pen-Pen disulfide; Phe(4-OMe); 2-Nal; Acvc; NH2; DIG linker joins the two subunits
B12: [Ac-[Pen]-NTWQ-[Pen]-[Phe(4-CONH2)]-[2-Nal]-[Acvc]-KNN-NH2]2DIG (peptide)
peptide: XNTWQXFXXKNN
modifications: Ac; Pen-Pen disulfide; Phe(4-CONH2); 2-Nal; Acvc; NH2; DIG linker joins the two subunits
B13: [Ac-[Pen]-NTWQ-[Pen]-[Phe(4-OMe)]-[2-Nal]-[Aib]-KNN-NH2]2DIG (peptide)
peptide: XNTWQXFXXKNN
modifications: Ac; Pen-Pen disulfide; Phe(4-OMe); 2-Nal; Aib; NH2; DIG linker joins the two subunits
B14: [Ac-[Pen]-NTWQ-[Pen]-[Phe(4-OMe)]-[2-Nal]-[4-amino-4-carboxy-tetrahydropyran]-KNN-NH2]2DIG (peptide)
peptide: XNTWQXFXXKNN
modifications: Ac; Pen-Pen disulfide; Phe(4-OMe); 2-Nal; 4-amino-4-carboxy-tetrahydropyran; NH2; DIG linker joins the two subunits
B15: [Ac-[Pen]-NTWQ-[Pen]-[Phe(4-OMe)]-[2-Nal]-[Achc]-KNN-NH2]2DIG (peptide)
peptide: XNTWQXFXXKNN
modifications: Ac; Pen-Pen disulfide; Phe(4-OMe); 2-Nal; Achc; NH2; DIG linker joins the two subunits
B16: [Ac-[Pen]-NTWQ-[Pen]-[Phe(4-OMe)]-[2-Nal]-[α-MeLeu]-KNN-NH2]2DIG (peptide)
peptide: XNTWQXFXLKNN
modifications: Ac; Pen-Pen disulfide; Phe(4-OMe); 2-Nal; α-MeLeu; NH2; DIG linker joins the two subunits
B17: [Ac-[Pen]-NTWQ-[Pen]-[Phe(4-CONH2)]-[2-Nal]-[Aib]-KNN-NH2]2DIG (peptide)
peptide: XNTWQXFXXKNN
modifications: Ac; Pen-Pen disulfide; Phe(4-CONH2); 2-Nal; Aib; NH2; DIG linker joins the two subunits
B18: [Ac-[Pen]-NTWQ-[Pen]-[Phe(4-CONH2)]-[2-Nal]-[Achc]-KNN-NH2]2DIG (peptide)
peptide: XNTWQXFXXKNN
modifications: Ac; Pen-Pen disulfide; Phe(4-CONH2); 2-Nal; Achc; NH2; DIG linker joins the two subunits

These binders were tested against Rat IL-23R_huFC (rat) (assay: rat ELISA vs IL-23).

Row | IC50 | Binder
1 | < 10 nM | B1
2 | < 10 nM | B2
3 | < 10 nM | B3
4 | < 10 nM | B4
5 | < 10 nM | B5
6 | < 10 nM | B6

Each binder was assayed against T1, IL23R_huFC (assay: human ELISA vs IL-23).

Row | IC50 | Binder
7 | < 10 nM | B1
8 | < 10 nM | B7
9 | < 10 nM | B8
10 | < 10 nM | B3
11 | < 10 nM | B4
12 | < 10 nM | B5
13 | < 10 nM | B6

These binders were tested against T2, IL-23R on DB cells (assay: cell-based or functional assay).

Row | pStat3 HTRF IC50 | Binder
14 | < 10 nM | B9
15 | < 10 nM | B10
16 | < 10 nM | B11
17 | < 10 nM | B12
18 | < 10 nM | B13
19 | < 10 nM | B14
20 | < 10 nM | B15
21 | < 10 nM | B16
22 | < 10 nM | B17
23 | < 10 nM | B18

What follows are binders tested against T3, IL-23R on human cells … (assay: cell-based or functional assay).

Row | pStat3 HTRF IC50 | Binder
24 | < 10 nM | B1
25 | < 10 nM | B7
26 | < 10 nM | B8
27 | < 10 nM | B3
28 | < 10 nM | B4
29 | < 10 nM | B5
30 | < 10 nM | B6

Biological target: T3, IL-23R on human cells …
Experiment: cell-based or functional assay
Remark: another data set of the same source

Row | NK cell assay IC50 (IFNγ) | Binder
31 | < 25 nM | B1
32 | < 25 nM | B7
33 | < 25 nM | B8
34 | < 25 nM | B2
35 | < 25 nM | B3
36 | < 25 nM | B4
37 | < 25 nM | B5
38 | < 25 nM | B6

Biological target: Rat IL-23R_huFC (rat)
Experiment: rat ELISA vs IL-23
Remark: another data set of the same source

Row | IC50 | Binder
39 | 10 to 25 nM | B7
40 | 10 to 25 nM | B8
